This is an account of results in article PMC2408616, “Modular Organization and Combinatorial Energetics of Proline–Tyrosine Nuclear Localization Signals” (PLoS Biology, 2008).

Where no end group is shown, it is not given here. MBP = not defined here

One may read the Kd as the free concentration of one partner at which half of the binding sites on the other are occupied at equilibrium, for simple one-to-one binding. Higher therefore signals a looser complex.

The test deals with T1, Kap104p (yeast (S. cerevisiae), UniProt P38217 1-918).
T1 construct: Kap104p, yeast homolog of Kapβ2; gene a gift from J. Aitchison, subcloned into pGEX-Tev; also called yeast Karyopherin β2 homolog; source: E. coli Rosetta(DE3)pLysS, purified (glutathione sepharose, TEV cleavage, anion exchange, gel filtration)
T1 sequence (looked up): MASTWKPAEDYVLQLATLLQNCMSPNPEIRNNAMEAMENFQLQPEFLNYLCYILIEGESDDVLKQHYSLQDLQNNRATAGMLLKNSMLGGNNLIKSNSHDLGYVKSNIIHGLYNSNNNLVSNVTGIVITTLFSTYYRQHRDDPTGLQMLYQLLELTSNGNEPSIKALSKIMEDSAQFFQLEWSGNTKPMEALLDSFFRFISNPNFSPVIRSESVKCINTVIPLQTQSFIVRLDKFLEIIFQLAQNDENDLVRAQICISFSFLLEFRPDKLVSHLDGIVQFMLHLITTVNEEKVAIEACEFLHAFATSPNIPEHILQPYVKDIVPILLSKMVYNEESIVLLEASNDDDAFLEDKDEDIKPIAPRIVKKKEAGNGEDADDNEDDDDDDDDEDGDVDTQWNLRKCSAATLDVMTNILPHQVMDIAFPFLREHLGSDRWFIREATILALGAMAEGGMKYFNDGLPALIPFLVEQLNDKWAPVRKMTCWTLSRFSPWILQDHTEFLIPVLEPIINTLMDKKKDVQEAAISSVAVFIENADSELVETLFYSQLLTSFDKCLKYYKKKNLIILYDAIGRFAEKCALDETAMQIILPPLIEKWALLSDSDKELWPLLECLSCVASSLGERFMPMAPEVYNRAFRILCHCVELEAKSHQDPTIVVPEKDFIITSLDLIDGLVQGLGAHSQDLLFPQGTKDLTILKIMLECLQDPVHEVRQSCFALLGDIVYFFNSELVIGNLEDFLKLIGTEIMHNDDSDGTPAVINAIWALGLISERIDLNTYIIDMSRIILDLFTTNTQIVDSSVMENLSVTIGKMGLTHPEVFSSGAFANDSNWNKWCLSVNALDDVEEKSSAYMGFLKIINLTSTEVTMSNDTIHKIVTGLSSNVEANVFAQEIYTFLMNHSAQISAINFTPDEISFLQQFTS
Kind of test: ITC; 90–350 μM MBP-NLS titrated into 9–35 μM Kap104p in the cell; 20 °C; 20 mM Tris pH 7.5, 100 mM NaCl, 2 mM β-mercaptoethanol, 10% glycerol; 35 injections of 8 μl; single-site model. The following applies: both partners purified. (ITC needs no label: the signal is the heat of the interaction.)

B1: MBP–Nab2p NLS L239I (domain or fragment, S. cerevisiae, UniProt P32505 201-251, looked up)
chain: DNSQRFTQRGGGAVGKNRRGGRGGNRGGRNNNSTRFNPIAKALGMAGESNM
notes: Nab2p NLS, residues 201-251; source: E. coli BL21(DE3), purified (amylose resin, cation exchange)
Regarding B1, the binding result is “binds”.

B2: MBP–Nab2p NLS R219A (domain or fragment, S. cerevisiae, UniProt P32505 201-251, looked up)
chain: DNSQRFTQRGGGAVGKNRAGGRGGNRGGRNNNSTRFNPLAKALGMAGESNM
notes: as for B1
B2: the “KD,mutant/KD,wild type” value is roughly 1.

B3: MBP–Nab2p NLS L239M (domain or fragment, S. cerevisiae, UniProt P32505 201-251, looked up)
chain: DNSQRFTQRGGGAVGKNRRGGRGGNRGGRNNNSTRFNPMAKALGMAGESNM
notes: Nab2p NLS, residues 201-251; also called L239 to M; source: E. coli BL21(DE3), purified (amylose resin, cation exchange)
Regarding B3, the binding result was “binds”.

B4: MBP–Nab2p NLS 238PL239/AA (domain or fragment, S. cerevisiae, UniProt P32505 201-251, looked up)
chain: DNSQRFTQRGGGAVGKNRRGGRGGNRGGRNNNSTRFNAAAKALGMAGESNM
notes: as for B1
As to B4, binding was characterised by a dissociation constant (Kd) of 376 nM. This counts as sub-micromolar.

B5: MBP–Nab2p NLS L239R (domain or fragment, S. cerevisiae, UniProt P32505 201-251, looked up)
chain: DNSQRFTQRGGGAVGKNRRGGRGGNRGGRNNNSTRFNPRAKALGMAGESNM
notes: Nab2p NLS, residues 201-251; also called L239 to R; source: E. coli BL21(DE3), purified (amylose resin, cation exchange)
Take B5: the binding result is “binds”.

B6: MBP–Nab2p NLS R218A (domain or fragment, S. cerevisiae, UniProt P32505 201-251, looked up)
chain: DNSQRFTQRGGGAVGKNARGGRGGNRGGRNNNSTRFNPLAKALGMAGESNM
notes: as for B1
Take B6: the “KD,mutant/KD,wild type” value is roughly 1.

B7: MBP–Nab2p NLS L239S (domain or fragment, S. cerevisiae, UniProt P32505 201-251, looked up)
chain: DNSQRFTQRGGGAVGKNRRGGRGGNRGGRNNNSTRFNPSAKALGMAGESNM
notes: Nab2p NLS, residues 201-251; also called L239 to S; source: E. coli BL21(DE3), purified (amylose resin, cation exchange)
Turning to B7, the binding result is given as “binds”.

B8: MBP–Nab2p NLS F236L (domain or fragment, S. cerevisiae, UniProt P32505 201-251, looked up)
chain: DNSQRFTQRGGGAVGKNRRGGRGGNRGGRNNNSTRLNPLAKALGMAGESNM
notes: as for B1
Regarding B8, the binding result was “binds”.

B9: MBP–Nab2p NLS L239T (domain or fragment, S. cerevisiae, UniProt P32505 201-251, looked up)
chain: DNSQRFTQRGGGAVGKNRRGGRGGNRGGRNNNSTRFNPTAKALGMAGESNM
notes: Nab2p NLS, residues 201-251; also called L239 to T; source: E. coli BL21(DE3), purified (amylose resin, cation exchange)
With B9, the binding result was “binds”.

B10: MBP–Nab2p NLS R235K (domain or fragment, S. cerevisiae, UniProt P32505 201-251, looked up)
chain: DNSQRFTQRGGGAVGKNRRGGRGGNRGGRNNNSTKFNPLAKALGMAGESNM
notes: Nab2p NLS, residues 201-251; also called R235 to lysine; source: E. coli BL21(DE3), purified (amylose resin, cation exchange)
As for B10, the “KD,mutant/KD,wild type” value came to 1.

B11: MBP–Nab2p NLS R226A (domain or fragment, S. cerevisiae, UniProt P32505 201-251, looked up)
chain: DNSQRFTQRGGGAVGKNRRGGRGGNAGGRNNNSTRFNPLAKALGMAGESNM
notes: as for B1
B11: the “KD,mutant/KD,wild type” value was roughly 1.

B12: MBP–Nab2p NLS L239V (domain or fragment, S. cerevisiae, UniProt P32505 201-251, looked up)
chain: DNSQRFTQRGGGAVGKNRRGGRGGNRGGRNNNSTRFNPVAKALGMAGESNM
notes: Nab2p NLS, residues 201-251; also called L239 to V; source: E. coli BL21(DE3), purified (amylose resin, cation exchange)
For B12, the binding result is listed as “binds”.

B13: MBP–Nab2p NLS R229A (domain or fragment, S. cerevisiae, UniProt P32505 201-251, looked up)
chain: DNSQRFTQRGGGAVGKNRRGGRGGNRGGANNNSTRFNPLAKALGMAGESNM
notes: as for B1
With B13, the “KD,mutant/KD,wild type” value was roughly 1.

B14: MBP–Nab2p NLS R235A, 238PL239/AA (domain or fragment, S. cerevisiae, UniProt P32505 201-251, looked up)
chain: DNSQRFTQRGGGAVGKNRRGGRGGNRGGRNNNSTAFNAAAKALGMAGESNM
notes: as for B1
For the molecule B14, the Kd came out at 544 nM.

B15: MBP–Nab2p NLS L239E (domain or fragment, S. cerevisiae, UniProt P32505 201-251, looked up)
chain: DNSQRFTQRGGGAVGKNRRGGRGGNRGGRNNNSTRFNPEAKALGMAGESNM
notes: as for B1
On to B15, for which the “fold decrease in affinity against wild type” value is 7 fold.

B16: MBP–Hrp1p NLS (domain or fragment, S. cerevisiae, UniProt Q99383 494-534, looked up)
chain: RDRNDRDRDYNHRSGGNHRRNGRGGRGGYNRRNNGYHPYNR
notes: Hrp1p NLS, residues 494-534; also called Hrp1p NLS wild type; source: E. coli BL21(DE3), purified (amylose resin, cation exchange)
B16 had an equilibrium dissociation constant (Kd) of 32 nM. That is a double-digit nanomolar value.

B17: MBP–Hrp1p NLS 531PY532/AA (domain or fragment, S. cerevisiae, UniProt Q99383 494-534, looked up)
chain: {MBP}-RDRNDRDRDYNHRSGGNHRRNGRGGRGGYNRRNNGYHAANR
modifications: reading uncertain
notes: Hrp1p NLS, residues 494-534; source: E. coli BL21(DE3), purified (amylose resin, cation exchange)
On to B17, for which the equilibrium dissociation constant (Kd) was greater than 10000 nM.

B18: MBP–Hrp1p NLS Y532F (domain or fragment, S. cerevisiae, UniProt Q99383 494-534, looked up)
chain: RDRNDRDRDYNHRSGGNHRRNGRGGRGGYNRRNNGYHPFNR
notes: as for B17
On to B18, for which the “fold decrease in affinity against wild type” value was found to be 4 fold.
